Data taken from patent US5786168.

Key:
[1] = target: PLA2-binding GIF from anti-CD3-treated AC5 cells (human); test: ELISA of the acid eluate fraction from 110BH3-Sepharose
[2] = target: human antigen non-specific glycosylation inhibiting factor (GIF), hybridoma-derived (human); test: ELISA of the flow-through fraction from 110BH3-Sepharose
[3] = target: bovine serum albumin (BSA) (bovine) (UniProt P02769); test: ELISA, nonspecific binding of Ig in the same supernatant to BSA-coated wells
[4] = target: human antigen non-specific glycosylation inhibiting factor (GIF), hybridoma-derived (human); test: ELISA, culture supernatant on wells coated with affinity-purified GIF from CL3
[5] = target: recombinant human GIF secreted by COS-1 cells co-transfected with SRα-hcGIF and SRα-hfurin (human); test: fractionation of concentrated COS-1 supernatant on 388F1-Sepharose; GIF bioassay

Substance: monoclonal anti-human GIF antibody 388F1 (ATCC HB 10472)
- ELISA signal (absorption at 490 nm) [1]: 0.86 absorbance
- ELISA signal (absorption at 490 nm) [2]: 0.36 absorbance
- ELISA control (optical density at 410 mµ) [3]: 0.1 OD
- ELISA signal (optical density at 410 mµ) [4]: 0.892 OD
- GIF activity recovered in the acid eluate fraction [5]: > 75%
